Article PMC7473855

Biological target: Ty1 nanobody, biotinylated on the C-terminus (alpaca)
Experiment: BLI; comparative binding test; biotinylated nanobody on streptavidin (SAX) biosensors at about 0.7 nm, dipped into monomeric RBD at 550 nM; 2xPBS with 0.05% Tween-20; Octet RED

Sequence of Ty1 nanobody, biotinylated on the C-terminus (alpaca) (VHH, as listed by the source): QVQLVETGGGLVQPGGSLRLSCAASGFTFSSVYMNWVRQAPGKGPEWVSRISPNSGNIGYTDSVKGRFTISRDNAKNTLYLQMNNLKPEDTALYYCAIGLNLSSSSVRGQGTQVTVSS

SARS-CoV-2 spike receptor-binding domain (RBD) (from UniProt P0DTC2 319-541) (domain or fragment)
BLI response at 550 nM RBD: 1.5 nm
